B1: Brefeldin A-inhibited guanine nucleotide-exchange protein 2 (Homo sapiens), Q9Y6D5 (parent)
chain: MQESQTKSMFVSRALEKILADKEVKRPQHSQLRRACQVALDEIKAEIEKQRLGTAAPPKANFIEADKYFLPFELACQSKSPRVVSTSLDCLQKLIAYGHITGNAPDSGAPGKRLIDRIVETICSCFQGPQTDEGVQLQIIKALLTAVTSPHIEIHEGTILQTVRTCYNIYLASKNLINQTTAKATLTQMLNVIFTRMENQVLQEARELEKPIQSKPQSPVIQAAAVSPKFVRLKHSQAQSKPTTPEKTDLTNGEHARSDSGKVSTENGDAPRERGSSLSGTDDGAQEVVKDILEDVVTSAIKEAAEKHGLTEPERVLGELECQECAIPPGVDENSQTNGIADDRQSLSSADNLESDAQGHQVAARFSHVLQKDAFLVFRSLCKLSMKPLGEGPPDPKSHELRSKVVSLQLLLSVLQNAGPVFRTHEMFINAIKQYLCVALSKNGVSSVPDVFELSLAIFLTLLSNFKMHLKMQIEVFFKEIFLNILETSTSSFEHRWMVIQTLTRICADAQCVVDIYVNYDCDLNAANIFERLVNDLSKIAQGRSGHELGMTPLQELSLRKKGLECLVSILKCMVEWSKDLYVNPNHQTSLGQERLTDQEIGDGKGLDMARRCSVTSMESTVSSGTQTTVQDDPEQFEVIKQQKEIIEHGIELFNKKPKRGIQFLQEQGMLGTSVEDIAQFLHQEERLDSTQVGDFLGDSARFNKEVMYAYVDQLDFCEKEFVSALRTFLEGFRLPGEAQKIDRLMEKFAARYIECNQGQTLFASADTAYVLAYSIIMLTTDLHSPQVKNKMTKEQYIKMNRGINDSKDLPEEYLSSIYEEIEGKKIAMKETKELTIATKSTKQNVASEKQRRLLYNLEMEQMAKTAKALMEAVSHAKAPFTSATHLDHVRPMFKLVWTPLLAAYSIGLQNCDDTEVASLCLEGIRCAIRIACIFGMQLERDAYVQALARFSLLTASSSITEMKQKNIDTIKTLITVAHTDGNYLGNSWHEILKCISQLELAQLIGTGVKTRYLSGSGREREGSLKGHTLAGEEFMGLGLGNLVSGGVDKRQMASFQESVGETSSQSVVVAVDRIFTGSTRLDGNAIVDFVRWLCAVSMDELASPHHPRMFSLQKIVEISYYNMNRIRLQWSRIWHVIGDHFNKVGCNPNEDVAIFAVDSLRQLSMKFLEKGELANFRFQKDFLRPFEHIMKKNRSPTIRDMAIRCIAQMVNSQAANIRSGWKNIFAVFHQAASDHDGNIVELAFQTTCHIVTTIFQHHFPAAIDSFQDAVKCLSEFACNAAFPDTSMEAIRLIRFCGKYVSERPRVLQEYTSDDMNVAPGDRVWVRGWFPILFELSCIINRCKLDVRTRGLTVMFEIMKSYGHTFEKHWWQDLFRIVFRIFDNMKLPEQLSEKSEWMTTTCNHALYAICDVFTQFYEALNEVLLSDVFAQLQWCVKQDNEQLARSGTNCLENLVISNGEKFSPEVWDETCNCMLDIFKTTIPHVLLTWRPVGMEEDSSEKHLDVDLDRQSLSSIDKNPSERGQSQLSNPTDDSWKGRPYANQKLFASLLIKCVVQLELIQTIDNIVFYPATSKKEDAEHMVAAQQDTLDADIHIETEDQGMYKYMSSQHLFKLLDCLQESHSFSKAFNSNYEQRTVLWRAGFKGKSKPNLLKQETSSLACCLRILFRMYVDENRRDSWEEIQQRLLTVCSEALAYFITVNSESHREAWTSLLLLLLTKTLKINDEKFKAHASMYYPYLCEIMQFDLIPELRAVLRKFFLRIGVVYKIWIPEEPSQVPAALSPVW
partner: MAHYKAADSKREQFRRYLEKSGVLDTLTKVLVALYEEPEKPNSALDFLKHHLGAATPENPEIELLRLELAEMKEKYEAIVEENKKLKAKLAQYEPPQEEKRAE

Variants of: B1
Conditions: with mycbp_human MYCBP

Row | effect of a mutation on the interaction | Variant
1 | decreasing interaction | I292P
